According to patent publication US20050282743A1, “Molecular interactions in cells” (Arbor Vita Corporation, priority 2001, published 2005):
Ends that are not written are not given here. * marks the point of attachment. Biotin = O=C1N[C@H]2[C@H](CS[C@H]2CCCCC(=O)*)N1

Tests used:
Experiment in all cases: G' assay (10 uM PL peptide), results of TABLE 7 and TABLE 12
Assay type in all cases: binding
[1] = target: T1, PDZ protein (GST-PDZ fusion) (Homo sapiens, UniProt Q6P0Q8)
T1 construct: made in house; host or cells: E. coli (DH5alpha, BL21 or JM109)
Text: (§1) Each page of TABLE 7 and 12 includes seven columns. The columns in each table are numbered from left to right such that the left-most column in each table is column 1 and the right-most column in each table is column 7. Thus, the first column in each table is labeled “AVC ID”; this column simply lists an internal reference number used to refer to the carboxyl-terminal amino acids of the PL proteins listed in the second column. […] All PL peptides were biotinylated at the amino-terminus and the sequences of these PL peptides are presented in TABLE 8 (see end of specification).
(§2) This column provides the gene name for the PDZ portion of the GST-PDZ fusion that interacts with the PDZ-ligand to the left. For PDZ domain-containing proteins with multiple domains, the domain number is listed to the right of the PDZ (i.e., in column 5 labeled “PDZ Domain”), and indicates the PDZ domain number when numbered from the amino-terminus to the carboxy-terminus.
(§3) The third column labeled “Peptide Optimal Concentration” in the tables is a number reflective of the binding interaction between the PL protein and PDZ protein. […] The column labeled “Protein Optimal Concentration” refers to the protein concentration used to assay PL interaction (in ug/ml); a ‘0’ is indicative of 5 ug/ml protein concentration; any other value represents the concentration (in ug/ml) used to determine the dissociation constant for a given interaction.
(§4) Finally, the seventh column labeled “Classification” is another measure of the level of binding. In particular, it provides an absorbance value at 450 nm which indicates the amount of PL peptide bound to the PDZ protein. The following numerical values have the following meanings: ‘1’—A450 nm 0-1; ‘2’—A450 nm 1-2; ‘3’—A450 nm 2-3; ‘4’—A450 nm 3-4; ‘5’—A450 nm of 4 more than 2× repeated; ‘0’—A450 nm 0, i.e., not found to interact. Thus, higher numbers indicate stronger interactions.
(§5) For convenience, the assay conditions described in this section are referred to as the “G′ assay” and the “G″ assay,” with the specific conditions described in the preceding section on G assays being referred to as the “G^0 assay.” The “G′ assay” is identical to the “G^0 assay” except at step (2) the peptide concentration is 10 uM instead of 20 uM.

[2] = system: PDZ protein (GST-PDZ fusion)
Text: as §1, §2, §3, §4, §5

[3] = target: T2, PDZ protein (GST-PDZ fusion) (Homo sapiens, UniProt O75970)
T2 construct: made in house; host or cells: E. coli (DH5alpha, BL21 or JM109)
Text: as §1, §2, §3, §4, §5

[4] = target: T3, PDZ protein (GST-PDZ fusion) (Homo sapiens, UniProt Q12923); settings: PDZ PTPL-1, PDZ Domain 4
T3 construct: made in house; host or cells: E. coli (DH5alpha, BL21 or JM109)
Text: as §1, §2, §3, §4, §5

[5] = target: T4, PDZ protein (GST-PDZ fusion) (Homo sapiens, UniProt Q02410); settings: PDZ Mint 1, PDZ Domain 1, 2
T4 construct: made in house; host or cells: E. coli (DH5alpha, BL21 or JM109)
T4 sequence (Q02410 1-837): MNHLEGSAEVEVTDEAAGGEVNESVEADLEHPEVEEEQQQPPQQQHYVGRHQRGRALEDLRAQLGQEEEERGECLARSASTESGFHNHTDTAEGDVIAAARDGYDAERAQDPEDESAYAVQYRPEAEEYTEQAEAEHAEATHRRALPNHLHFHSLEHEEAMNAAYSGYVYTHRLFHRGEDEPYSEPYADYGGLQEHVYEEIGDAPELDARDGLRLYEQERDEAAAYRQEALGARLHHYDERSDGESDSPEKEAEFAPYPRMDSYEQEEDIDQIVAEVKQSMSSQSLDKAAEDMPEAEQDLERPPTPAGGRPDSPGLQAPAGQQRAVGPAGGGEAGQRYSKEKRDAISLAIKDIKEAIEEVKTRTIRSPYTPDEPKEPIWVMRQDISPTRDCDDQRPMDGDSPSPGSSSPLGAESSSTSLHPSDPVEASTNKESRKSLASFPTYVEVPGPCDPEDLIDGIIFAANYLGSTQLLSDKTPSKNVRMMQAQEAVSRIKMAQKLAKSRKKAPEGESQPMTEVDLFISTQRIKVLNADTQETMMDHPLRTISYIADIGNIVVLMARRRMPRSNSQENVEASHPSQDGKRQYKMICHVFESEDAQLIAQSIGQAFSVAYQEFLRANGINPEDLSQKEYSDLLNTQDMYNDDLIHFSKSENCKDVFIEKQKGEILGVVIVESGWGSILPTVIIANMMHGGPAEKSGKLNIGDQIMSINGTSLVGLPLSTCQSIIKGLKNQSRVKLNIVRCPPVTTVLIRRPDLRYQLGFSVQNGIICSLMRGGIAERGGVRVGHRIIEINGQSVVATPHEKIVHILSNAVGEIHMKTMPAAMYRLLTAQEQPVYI
Text: as §1, §2, §3, §4, §5

[6] = target: T5, PDZ protein (GST-PDZ fusion) (Homo sapiens, UniProt Q5TCQ9); settings: PDZ KIAA1634, PDZ Domain 1
T5 construct: made in house; host or cells: E. coli (DH5alpha, BL21 or JM109)
T5 sequence (Q5TCQ9 1-1481): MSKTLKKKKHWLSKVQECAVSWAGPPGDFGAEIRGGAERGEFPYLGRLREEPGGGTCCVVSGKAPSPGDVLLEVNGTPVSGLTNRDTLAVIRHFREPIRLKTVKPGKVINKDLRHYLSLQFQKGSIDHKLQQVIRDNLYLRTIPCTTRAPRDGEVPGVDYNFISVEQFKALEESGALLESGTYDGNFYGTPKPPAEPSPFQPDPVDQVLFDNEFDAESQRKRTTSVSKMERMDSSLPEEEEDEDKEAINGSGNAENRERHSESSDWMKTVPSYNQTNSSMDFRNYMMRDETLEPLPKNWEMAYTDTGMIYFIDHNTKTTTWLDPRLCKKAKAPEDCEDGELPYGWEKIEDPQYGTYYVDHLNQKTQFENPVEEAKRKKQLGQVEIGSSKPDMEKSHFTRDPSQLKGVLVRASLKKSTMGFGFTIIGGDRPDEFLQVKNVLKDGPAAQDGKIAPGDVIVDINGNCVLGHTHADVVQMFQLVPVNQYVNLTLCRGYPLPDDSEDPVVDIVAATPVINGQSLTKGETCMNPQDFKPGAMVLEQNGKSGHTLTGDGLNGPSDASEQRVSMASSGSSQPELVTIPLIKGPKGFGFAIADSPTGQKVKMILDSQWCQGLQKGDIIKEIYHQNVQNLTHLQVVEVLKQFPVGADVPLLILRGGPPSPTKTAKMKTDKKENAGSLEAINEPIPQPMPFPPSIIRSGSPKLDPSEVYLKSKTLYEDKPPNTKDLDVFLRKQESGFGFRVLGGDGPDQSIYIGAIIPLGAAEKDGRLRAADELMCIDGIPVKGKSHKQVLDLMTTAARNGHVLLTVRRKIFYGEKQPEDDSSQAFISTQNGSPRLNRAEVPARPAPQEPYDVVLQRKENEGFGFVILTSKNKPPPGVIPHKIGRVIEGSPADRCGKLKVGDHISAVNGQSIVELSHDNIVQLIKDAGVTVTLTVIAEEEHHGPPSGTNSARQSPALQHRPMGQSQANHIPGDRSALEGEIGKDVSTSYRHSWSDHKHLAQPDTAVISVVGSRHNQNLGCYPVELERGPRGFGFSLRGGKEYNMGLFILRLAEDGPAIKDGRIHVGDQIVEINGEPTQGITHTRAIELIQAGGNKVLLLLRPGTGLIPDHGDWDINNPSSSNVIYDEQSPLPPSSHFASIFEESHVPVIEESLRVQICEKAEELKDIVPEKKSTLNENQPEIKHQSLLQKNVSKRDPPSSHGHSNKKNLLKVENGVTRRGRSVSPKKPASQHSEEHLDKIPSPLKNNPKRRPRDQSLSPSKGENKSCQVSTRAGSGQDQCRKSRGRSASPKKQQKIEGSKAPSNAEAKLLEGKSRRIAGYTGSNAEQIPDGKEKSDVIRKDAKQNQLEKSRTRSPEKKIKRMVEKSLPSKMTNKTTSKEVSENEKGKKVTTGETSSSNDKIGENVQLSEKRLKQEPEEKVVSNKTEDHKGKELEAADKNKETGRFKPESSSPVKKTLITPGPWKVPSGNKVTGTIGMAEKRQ
Text: as §1, §2, §3, §4, §5

[7] = target: T6, PDZ protein (GST-PDZ fusion) (Homo sapiens, UniProt Q12959); settings: PDZ DLG1, PDZ Domain 1, 2
T6 construct: made in house; host or cells: E. coli (DH5alpha, BL21 or JM109)
Text: as §1, §2, §3, §4, §5

T1 sequence (Q6P0Q8 whole entry, the tested form may be a part): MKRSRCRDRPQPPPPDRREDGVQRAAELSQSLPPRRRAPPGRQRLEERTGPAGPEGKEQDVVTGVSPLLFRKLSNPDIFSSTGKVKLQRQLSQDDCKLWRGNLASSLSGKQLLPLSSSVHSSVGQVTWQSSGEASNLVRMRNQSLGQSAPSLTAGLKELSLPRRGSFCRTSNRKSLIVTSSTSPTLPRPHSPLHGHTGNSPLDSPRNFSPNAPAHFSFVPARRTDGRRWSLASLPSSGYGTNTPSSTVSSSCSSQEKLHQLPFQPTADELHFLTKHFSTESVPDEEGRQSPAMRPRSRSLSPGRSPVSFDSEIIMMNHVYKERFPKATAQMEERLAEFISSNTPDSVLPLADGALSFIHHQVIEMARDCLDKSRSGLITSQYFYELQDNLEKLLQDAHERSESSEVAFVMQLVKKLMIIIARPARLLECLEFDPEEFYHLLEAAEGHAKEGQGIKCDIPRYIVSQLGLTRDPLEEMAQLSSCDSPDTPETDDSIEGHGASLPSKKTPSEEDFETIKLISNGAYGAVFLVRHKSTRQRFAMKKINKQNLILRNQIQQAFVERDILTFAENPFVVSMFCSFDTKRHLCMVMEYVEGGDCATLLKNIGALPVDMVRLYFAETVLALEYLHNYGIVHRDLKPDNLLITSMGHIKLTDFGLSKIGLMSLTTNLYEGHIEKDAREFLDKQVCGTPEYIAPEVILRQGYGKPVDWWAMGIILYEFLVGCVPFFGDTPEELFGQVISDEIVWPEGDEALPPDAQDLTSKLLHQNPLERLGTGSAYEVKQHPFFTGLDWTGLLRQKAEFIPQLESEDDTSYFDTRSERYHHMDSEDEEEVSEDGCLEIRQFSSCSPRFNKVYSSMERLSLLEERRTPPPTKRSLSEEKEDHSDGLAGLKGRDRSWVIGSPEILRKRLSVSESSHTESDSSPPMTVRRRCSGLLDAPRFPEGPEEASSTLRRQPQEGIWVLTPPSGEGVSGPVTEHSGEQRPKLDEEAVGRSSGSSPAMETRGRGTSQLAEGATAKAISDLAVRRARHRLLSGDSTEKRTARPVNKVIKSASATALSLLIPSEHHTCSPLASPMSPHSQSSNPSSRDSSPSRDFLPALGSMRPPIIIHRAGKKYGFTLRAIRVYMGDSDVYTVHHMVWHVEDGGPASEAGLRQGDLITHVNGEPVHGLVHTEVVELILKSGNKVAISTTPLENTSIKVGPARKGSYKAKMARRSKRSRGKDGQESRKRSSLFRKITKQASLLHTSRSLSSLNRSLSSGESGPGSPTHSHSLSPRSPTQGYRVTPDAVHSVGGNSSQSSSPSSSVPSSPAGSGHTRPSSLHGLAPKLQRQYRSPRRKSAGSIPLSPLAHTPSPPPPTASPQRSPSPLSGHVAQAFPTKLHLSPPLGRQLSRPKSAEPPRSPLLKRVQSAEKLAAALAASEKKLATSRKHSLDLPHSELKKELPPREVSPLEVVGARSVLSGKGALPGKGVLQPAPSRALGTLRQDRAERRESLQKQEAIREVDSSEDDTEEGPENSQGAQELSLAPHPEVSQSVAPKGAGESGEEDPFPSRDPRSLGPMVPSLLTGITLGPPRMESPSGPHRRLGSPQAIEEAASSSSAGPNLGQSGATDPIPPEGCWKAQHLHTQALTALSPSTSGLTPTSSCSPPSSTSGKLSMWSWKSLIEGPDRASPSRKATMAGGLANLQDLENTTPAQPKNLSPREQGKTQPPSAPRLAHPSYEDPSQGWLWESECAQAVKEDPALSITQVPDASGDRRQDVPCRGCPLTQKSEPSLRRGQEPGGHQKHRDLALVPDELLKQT
T2 sequence (O75970 whole entry, the tested form may be a part): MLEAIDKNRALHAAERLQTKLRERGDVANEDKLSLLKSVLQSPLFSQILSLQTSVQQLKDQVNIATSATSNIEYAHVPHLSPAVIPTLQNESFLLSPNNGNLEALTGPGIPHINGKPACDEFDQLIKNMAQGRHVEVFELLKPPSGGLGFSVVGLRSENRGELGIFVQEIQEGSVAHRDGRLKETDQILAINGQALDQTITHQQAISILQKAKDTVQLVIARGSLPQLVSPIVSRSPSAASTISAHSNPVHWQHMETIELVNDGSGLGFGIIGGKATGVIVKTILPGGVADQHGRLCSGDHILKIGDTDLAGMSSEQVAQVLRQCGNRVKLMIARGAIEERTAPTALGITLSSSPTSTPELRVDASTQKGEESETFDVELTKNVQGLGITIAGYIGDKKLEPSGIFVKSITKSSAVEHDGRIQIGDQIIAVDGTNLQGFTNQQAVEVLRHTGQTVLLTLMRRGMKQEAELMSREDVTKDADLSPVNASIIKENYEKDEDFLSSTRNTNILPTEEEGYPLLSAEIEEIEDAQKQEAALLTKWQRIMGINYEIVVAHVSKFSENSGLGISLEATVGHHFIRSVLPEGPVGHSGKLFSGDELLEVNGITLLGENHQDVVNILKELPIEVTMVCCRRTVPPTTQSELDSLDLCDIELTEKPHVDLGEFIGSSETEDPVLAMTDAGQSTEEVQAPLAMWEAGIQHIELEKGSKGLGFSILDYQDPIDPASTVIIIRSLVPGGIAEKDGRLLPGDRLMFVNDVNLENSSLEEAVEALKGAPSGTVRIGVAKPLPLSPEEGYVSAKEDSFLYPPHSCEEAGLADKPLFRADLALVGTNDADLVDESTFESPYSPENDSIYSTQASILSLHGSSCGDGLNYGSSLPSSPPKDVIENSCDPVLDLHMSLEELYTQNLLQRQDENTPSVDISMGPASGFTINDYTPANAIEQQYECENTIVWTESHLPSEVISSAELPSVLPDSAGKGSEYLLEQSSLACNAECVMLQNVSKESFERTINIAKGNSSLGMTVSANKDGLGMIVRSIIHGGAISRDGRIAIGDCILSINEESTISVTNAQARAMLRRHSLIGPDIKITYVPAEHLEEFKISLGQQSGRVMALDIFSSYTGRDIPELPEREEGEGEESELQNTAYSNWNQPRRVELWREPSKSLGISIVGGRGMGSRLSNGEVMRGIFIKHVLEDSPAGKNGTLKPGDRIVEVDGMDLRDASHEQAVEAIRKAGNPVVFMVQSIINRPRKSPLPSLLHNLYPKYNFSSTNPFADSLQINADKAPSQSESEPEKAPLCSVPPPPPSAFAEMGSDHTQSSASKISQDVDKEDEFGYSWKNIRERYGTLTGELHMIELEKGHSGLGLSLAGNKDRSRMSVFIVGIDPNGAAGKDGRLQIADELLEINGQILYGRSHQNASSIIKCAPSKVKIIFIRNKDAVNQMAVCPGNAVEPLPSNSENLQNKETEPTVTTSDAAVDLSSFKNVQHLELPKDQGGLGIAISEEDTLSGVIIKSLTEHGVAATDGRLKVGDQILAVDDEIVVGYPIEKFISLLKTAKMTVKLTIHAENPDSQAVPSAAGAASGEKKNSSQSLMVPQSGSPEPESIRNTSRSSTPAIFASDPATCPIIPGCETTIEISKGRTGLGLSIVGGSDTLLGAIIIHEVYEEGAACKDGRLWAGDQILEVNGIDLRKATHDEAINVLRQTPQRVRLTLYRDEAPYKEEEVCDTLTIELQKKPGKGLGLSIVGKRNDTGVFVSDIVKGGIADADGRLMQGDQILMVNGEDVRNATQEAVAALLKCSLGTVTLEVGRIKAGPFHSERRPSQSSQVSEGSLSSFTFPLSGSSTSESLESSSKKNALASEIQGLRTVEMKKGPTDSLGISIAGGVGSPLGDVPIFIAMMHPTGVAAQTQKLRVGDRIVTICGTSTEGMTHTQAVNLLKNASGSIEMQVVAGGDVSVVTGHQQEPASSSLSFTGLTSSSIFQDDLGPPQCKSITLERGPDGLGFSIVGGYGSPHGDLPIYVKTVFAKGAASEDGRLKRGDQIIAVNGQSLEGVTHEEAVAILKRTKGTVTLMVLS
T6 sequence (Q12959 whole entry, the tested form may be a part): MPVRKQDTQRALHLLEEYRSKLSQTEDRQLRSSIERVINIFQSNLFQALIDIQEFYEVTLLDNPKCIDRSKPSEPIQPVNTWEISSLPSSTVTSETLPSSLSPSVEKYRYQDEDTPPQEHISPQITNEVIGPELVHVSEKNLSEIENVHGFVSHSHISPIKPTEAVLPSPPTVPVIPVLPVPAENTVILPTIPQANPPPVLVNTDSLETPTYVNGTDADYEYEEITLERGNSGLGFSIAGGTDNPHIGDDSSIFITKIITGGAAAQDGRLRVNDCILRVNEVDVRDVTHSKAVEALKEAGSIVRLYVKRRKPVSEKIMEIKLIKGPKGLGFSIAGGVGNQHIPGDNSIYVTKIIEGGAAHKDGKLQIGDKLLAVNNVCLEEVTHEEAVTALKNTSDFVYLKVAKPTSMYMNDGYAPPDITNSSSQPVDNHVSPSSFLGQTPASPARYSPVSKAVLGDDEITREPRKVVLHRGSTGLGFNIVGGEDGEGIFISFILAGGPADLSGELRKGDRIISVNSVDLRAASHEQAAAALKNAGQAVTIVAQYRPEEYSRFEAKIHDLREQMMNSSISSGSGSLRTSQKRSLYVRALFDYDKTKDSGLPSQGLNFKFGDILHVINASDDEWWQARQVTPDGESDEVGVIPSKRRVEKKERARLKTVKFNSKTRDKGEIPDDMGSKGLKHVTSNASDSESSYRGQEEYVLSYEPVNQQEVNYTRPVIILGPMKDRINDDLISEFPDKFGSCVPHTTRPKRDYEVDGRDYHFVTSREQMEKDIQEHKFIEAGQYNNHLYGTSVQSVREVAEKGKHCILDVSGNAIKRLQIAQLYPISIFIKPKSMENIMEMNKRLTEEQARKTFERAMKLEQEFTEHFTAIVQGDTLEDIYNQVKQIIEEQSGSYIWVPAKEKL

Substance: KPQIAALKEETEEEVQDTRL (Biotin-KPQIAALKEETEEEVQDTRL)
- Classification ([1]; PDZ KIAA0807(S), PDZ Domain 1): 2 (A450 nm 1-2)
- Classification ([1]; PDZ KIAA807, PDZ Domain not given): 1 (A450 nm 0-1)
- Classification ([2]; PDZ SHANK, PDZ Domain 1): 1 (A450 nm 0-1)

Substance: PVYIVQEMPPQSPANIYYKV (Biotin-PVYIVQEMPPQSPANIYYKV) [ephrin B1]
- Classification ([3]; PDZ MUPP-1, PDZ Domain 3): 1 (A450 nm 0-1)
- Classification ([3]; PDZ MUPP-1, PDZ Domain 7): 1 (A450 nm 0-1)
- Classification ([3]; PDZ MUPP-1, PDZ Domain 9): 1 (A450 nm 0-1)
- Classification [4]: 2 (A450 nm 1-2)
- Classification ([1]; PDZ KIAA0807(S), PDZ Domain 1): 1 (A450 nm 0-1)
- Classification ([1]; PDZ KIAA807 (domain not given)): 1 (A450 nm 0-1)

Substance: PGQPPKVKSEFNSYSLTGYV (Biotin-PGQPPKVKSEFNSYSLTGYV) [claudin 2]
- Classification [5]: 2 (A450 nm 1-2)
- Classification [6]: 1 (A450 nm 0-1)
- Classification ([1]; PDZ KIAA807): 1 (A450 nm 0-1)
- Classification ([2]; PDZ BAI-1, PDZ Domain 3): 1 (A450 nm 0-1)

Substance: RDSFHRSSFRKAETQLSQGS (Biotin-RDSFHRSSFRKAETQLSQGS) [Clasp-5]
- Classification ([1]; PDZ KIAA807): 1 (A450 nm 0-1)
- Classification ([1]; PDZ KIAA0807(S), PDZ Domain 1): 1 (A450 nm 0-1)
- Classification ([2]; PDZ BAI-1, PDZ Domain 2): 1 (A450 nm 0-1)
- Classification ([2]; PDZ SHANK, PDZ Domain 1): 1 (A450 nm 0-1)

Substance: C5AR_HUMAN (Biotin-ESKSFTRSTVDTMAQKTQAV)
- Classification [4]: 1 (A450 nm 0-1)

Substance: PRLKRMQQFEDLEDEIPQFV (Biotin-PRLKRMQQFEDLEDEIPQFV) [RhoGAP 1 (PTPL1-associated)]
- Classification [4]: 2 (A450 nm 1-2)

Substance: IVFIHSFLSAKVTRLGLLA (Biotin-IVFIIHSFLSAKVTRLGLLA) [alpha-1-syntrophin]
- Classification ([1]; PDZ KIAA0807(S), PDZ Domain 1): 1 (A450 nm 0-1)

Substance: GGEDFKTTNPSKQFDKNAYV (Biotin-GGEDFKTTNPSKQFDKNAYV) [claudin 10]
- Classification [7]: 1 (A450 nm 0-1)
- Classification [6]: 1 (A450 nm 0-1)
